From article PMC12914668 come the findings set out here.

Experiment in all cases: fluorescence polarisation; fluorescence anisotropy; 5 nM OG488-labelled histone monomer held constant, ligase complex titrated; 20 mM Tris-HCl pH 7.5, 10 mM NaCl, 5% glycerol, 1 mM DTT; 25 °C, 1 to 2.5 h; BSA-coated black 96-well plates
The target in experiment [1] is Xenopus laevis histone H4 V22C, Oregon Green 488 labelled (Xenopus laevis) (UniProt P62799).
Experiment [2] deals with Xenopus laevis histone H3, Oregon Green 488 labelled at C110 (Xenopus laevis) (UniProt P84233).
Experiment [3] has as its target Xenopus laevis histone H2A K119C, Oregon Green 488 labelled (Xenopus laevis).

pKd: −log10 of the molar value.

On to “NEDD8-ASB9-ELOB/C-CUL5-RBX2 (neddylated ASB9-CRL5) (from UniProt Q96DX5 1-294; Q15370 1-118; Q15369 1-112; Q93034 1-780; Q9UBF6 1-113; Q15843 1-76) (complex)”, for which the pKd in experiment [1] is 7.32; in experiment [2], 7.11.
As to “ASB9-ELOB/C-CUL5-RBX2 (ASB9-CRL5), not neddylated (from UniProt Q96DX5 1-294; Q15370 1-118; Q15369 1-112; Q93034 1-780; Q9UBF6 1-113) (complex)”, the pKd in experiment [3] is 6.47; in experiment [1], 7.10; in experiment [2] it was 6.73.
